Experimental data reported in patent US20230391872A1 (ANAPTYSBIO, published 2023).
Values joined by “and” are separate entries in the source; they are usually repeats but may differ in a detail not shown here. Identical values can stand only once.

Experiments:
[1] = target: T1, human BTLA on cells (stably transfected 293c18 cells; human peripheral blood T and B cells) (human, UniProt Q7Z6A9 31-289); assay: flow cytometry (MFI) on 293c18 cells stably expressing human BTLA, goat anti-human kappa-PE detection, four-parameter fit [left panel (Hu BTLA 293c18 cells), EC50 box]
T1 construct: whole, on cells; the cells are named under assay; also called cell surface BTLA; full-length human BTLA
Procedure: 293c18 cell clone 1E4 stably expressing human BTLA construct or clone 1G5 stably expressing cynomolgus monkey BTLA were harvested with Accutase solution (Millipore Sigma/Sigma-Aldrich) and washed once with Phosphate-Buffered Saline, 1% BSA. 293c18 cynomolgus monkey BTLA cells were loaded with the lipophilic carbocyanine dye, DiD (2 μM, 1,1′-dioctadecyl-3,3,3′,3′-tetramenthylindodicarbocyanine; ThermoFisher Scientific) by rocking gently for 10 minutes at room temperature. DiD-stained cells were washed in PBS, 1% BSA and equal amounts of human BTLA 293c18 cells and cynomolgus monkey BTLA 293c18-DiD-stained cells were mixed. Cells (2×10⁵ total cells/sample) were incubated with the indicated concentrations of purified 6G3 IgG4 (two production lots, APE10840.03 and APE10840.04 (H Chain SEQ ID NO: 144, L Chain SEQ ID NO: 174)) or human IgG4 isotype control antibody specific for hen egg lysozyme with gentle shaking for 10 minutes at 4° C. in FACS buffer (PBS, 1% BSA, 0.02% sodium azide). […] Cells were washed and resuspended in FACS buffer and analyzed for fluorescence on a BD FACSArray (BD Biosciences). DiD stained cells expressing cynomolgus monkey BTLA (FIG. 3) were analyzed for median fluorescence intensity (MFI) separately from cells expressing human BTLA (FIG. 3). […]

[2] = target: T2, cynomolgus monkey BTLA ECD-his (monomeric cynomolgus monkey BTLA-his) (cynomolgus monkey, UniProt A0A2K5W7M7 31-157); assay: SPR, Biacore T200, antibody captured on anti-human IgG, monomeric cynomolgus monkey BTLA-his as analyte, 25 °C, 1:1 model; 6G3 IgG4 (APE10840.05) captured on the chip; cynomolgus BTLA-his analyte
T2 construct: extracellular domain; also called cynomolgus monkey BTLA extracellular domain
T2 sequence: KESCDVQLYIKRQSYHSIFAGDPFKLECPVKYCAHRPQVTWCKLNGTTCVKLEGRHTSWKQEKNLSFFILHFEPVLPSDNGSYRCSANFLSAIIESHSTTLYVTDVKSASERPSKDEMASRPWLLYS
Procedure: Surface plasmon resonance (SPR) analyses were carried out using a Biacore T200 (GE Healthcare Life Sciences). Kinetic constants were determined using a 1:1 binding model in the Biacore T200 Evaluation Software to calculate on- and off-rates (kₐ and kd, respectively), and dissociation constants as a measure of overall affinity (KD). Anti-human IgG (GE Healthcare Life Sciences) was immobilized on a CMS chip using EDC-activated amine coupling chemistry (420 seconds contact at a flow rate of 10 μl/min). Antibodies (APE10585.04 6G3 IgG1 and APE10840.05 6G3 IgG4), each at 0.5 μg/m1) were captured in a 60 second contact with the flow cell using a flow rate of 10 μl/min. Monomeric human BTLA-his or cynomolgus monkey BTLA-his at 60 nM, 20 nM, 6.7 nM and 2.2 nM concentrations was flowed over captured antibody (480 seconds association, 1800 seconds dissociation). Runs were at 25° C. and used buffer containing 10 mM HEPES, pH 7.6, 150 mM NaCl, 3 mM EDTA, 0.05% polysorbate 20 (HBS-EP+, pH 7.6; Teknova) for the mobile phase and all dilutions. At the end of each cycle, bound antigen was removed by regeneration with two successive exposures (60 seconds and 90 seconds) to 3 M MgCl2 (30 μl/min). Sensorgrams and binding constants corresponding to the experiment are shown in FIG. 1 (human BTLA) and FIG. 1 (cynomolgus monkey BTLA). […]

[3] = target: T1, human BTLA on cells (stably transfected …); assay: competition flow cytometry on 293c18 cells with human BTLA; increase of the binding of DyLight 650-HVEM-Fc (100 nM) with the antibody concentration [panel A]
Procedure: 293c18 cells, clone 1E4 stably expressing human BTLA were harvested with Accutase solution (Millipore Sigma/Sigma-Aldrich) and washed once with PBS, 1% BSA. Cells were plated at 2×10⁵ /well in U-bottom 96-well plates and placed on ice. Purified antibodies at twice the indicated concentrations were serially diluted 3-fold in FACS buffer (PBS, 1% BSA, 0.02% sodium azide). Antibodies tested were human IgG4 isotype control antibody specific for hen egg lysozyme, a reference BTLA IgG4 antagonist antibody, and 6G3 IgG4 (APE10840.06). Trimeric HVEM/LIGHT complexes were pre-formed by mixing equimolar (60 nM each) amounts of DyLight 650-HVEM human IgG1 Fc and trimeric LIGHT-foldon-his and pre-incubating for 15 minutes at room temperature. Either DyLight 650-HVEM-Fc (final concentration 100 nM; FIG. 6A) or pre-formed DyLight 650-HVEM/LIGHT complexes (final concentration of HVEM/LIGHT, 30 nM each; FIG. 6B) were added to the diluted antibodies (final concentrations of antibodies as indicated) and incubated for 15 minutes on ice. […] Cells were washed once, resuspended in FACS buffer and analyzed for fluorescence on a BD FACSArray (BD Biosciences). Median fluorescence intensities (MFI) were graphed in GraphPad Prism (GraphPad Software, Inc.) and curves fit with log(agonist) vs. response (three parameters) least squares fit. […]

EC50 [1]: 1.69 nM and 1.79 nM
Kd [2]: ~11 nM
EC50 (read off the curve) [3]: ~0.7 nM
B1: 6G3 IgG4 anti-BTLA antibody (APE10840 / APE12839 / APE13308) (antibody, V domains shown)
VH: QVQLVQSGAEVKKPGSSVKVSCKASGYVFSTSWMNWVRQAPGQGLEWMGRIYPGDADTNYVGKFKGRVTITADKSTTTAYMELSSLRSEDTAVYFCAKSGTFNFGNYRWYFDVWGKGTTVTVSS
VL: AIQLTQSPSSLSASVGDRVTITCRVSENIYSHLAWYQQKPGKAPKLLIYAATNLALGVPSRFSGSGSGTDYTLTISSLQPEDFATYYCQLFWGPPLTFGGGTKVEIKR
notes: Humanized antibody from a mouse hybridoma, tested as human IgG4 (detected with anti-human kappa); Some assays used labelled lots (DyLight 650, AF647, biotin, DyL488); also called 6G3 antibody; APE10840.03
